Laboratory results taken from paper PMC3020918.

Target: YFP(N)-Sso1p (S. cerevisiae) (UniProt P32867)
Assay: split reporter

Sequence of UniProt P32867 (P32867 whole entry): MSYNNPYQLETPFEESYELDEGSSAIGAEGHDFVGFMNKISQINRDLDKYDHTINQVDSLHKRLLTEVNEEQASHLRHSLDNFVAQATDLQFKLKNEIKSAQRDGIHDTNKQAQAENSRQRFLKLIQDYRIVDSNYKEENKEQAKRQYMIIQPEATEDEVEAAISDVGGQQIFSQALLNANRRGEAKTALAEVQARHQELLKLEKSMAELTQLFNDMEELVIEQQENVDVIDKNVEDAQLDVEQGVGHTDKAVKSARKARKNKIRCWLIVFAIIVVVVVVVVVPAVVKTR

Sec1p(658–724)-YFP(C) (from UniProt P30619 658-724) (domain or fragment)
percent stronger BiFC signal than Sec1p(658–724)-Sso2p: 22%
